US20240101668A1 (WUGEN, published 2024)

B1: Polypeptide No. 109 (scFv, V domains shown)
VH: QVQLVQSGAEVKKPGSSVKVSCKASGYTFTTYGISWVRQAPGQGLEWMGWMNPNSGNTGYAQKFQGRVTITADESTSTAYMELSSLRSEDTAVYYCAREGGDGDYPDYWGQGTLVTVSS
VL: EIVMTQSPATLSVSPGERATLSCRASQSISSSSLAWYQQKPGQAPRLLIYGASTRATGIPARFSGSGSGTEFTLTISSLQSEDFAVYYCQQYETAPYTFGQGTKLEIKR
notes: scFv
B2: Polypeptide No. 111 (scFv, V domains shown)
VH: QVQLVQSGAEVKKPGASVKVSCKASGGTFTSYGISWVRQAPGQGLEWMGWINPNTGVTNYAQDFQGRVTMTRDTSTSTVYMELSSLRSEDTAVYYCANEQGGFDYWGQGTLVTVSS
VL: EIVMTQSPATLSVSPGERATLSCRASQSVAGSYLAWYQQKPGQAPRLLIYGASTRATGIPARFSGSGSGTEFTLTISSLQSEDFAVYYCQQYYSTPLTFGGGTKVEIKR
notes: scFv
B3: Polypeptide No. 110 (scFv, V domains shown)
VH: QVQLVQSGAEVKKPGASVKVSCKASGYTFTDYYVHWVRQAPGQGLEWMGWMNPNSGNTGYAQKFQGRVTMTRDTSTSTVYMELSSLRSEDTAVYYCARDFIWVEGYLASPPPRFDYWGQGTLVTVSS
VL: DIQMTQSPSSLSASVGDRVTITCRASQRIGNWLAWYQQKPGKAPKLLIYAASSLQSGVPSRFSGSGSGTDFTLTISSLQPEDFATYYCQQSYSTPLTFGQGTKLEIKR
notes: scFv
B4: Polypeptide No. 114 (scFv, V domains shown)
VH: QVQLVQSGAEVKKPGASVKVSCKASGGTFSKYAISWVRQAPGQGLEWMGWMNPNSGNTGYAQKFQGRVTMTRDTSTSTVYMELSSLRSEDTAVYYCARDQGLTGYFDLWGRGTLVTVSS
VL: DIQMTQSPSSLSASVGDRVTITCRASQSIGNWLAWYQQKPGKAPKLLIYKASSLESGVPSRFSGSGSGTDFTLTISSLQPEDFATYYCQQSYNTPPTFGPGTKVDIKR
notes: scFv
B5: Polypeptide No. 112 (scFv, V domains shown)
VH: QVQLVQSGAEVKKPGSSVKVSCKASGSTLTGYDIHWVRQAPGQGLEWMGGIIPFLGTASYAQEFQGRVTITADESTSTAYMELSSLRSEDTAVYYCARGGGSGYDLDYWGQGTLVTVSS
VL: DIQMTQSPSSLSASVGDRVTITCRSSESISSWLAWYQQKPGKAPKLLIYSASTLQSGVPSRFSGSGSGTDFTLTISSLQPEDFATYYCQQSYSTPVTFGQGTRLEIKR
notes: scFv
B6: Polypeptide No. 113 (scFv, V domains shown)
VH: QVQLVQSGAEVKKPGSSVKVSCKASGGTFSSYDINWVRQAPGQGLEWMGGLIPVFGTTHYAQNFQGRVTITADESTSTAYMELSSLRSEDTAVYYCATGLGVTTSNYYYGMDVWGQGTLVTVSS
VL: DIQMTQSPSSLSASVGDRVTITCRASQGIRNDIGWYQQKPGKAPKLLIYAASTLQSGVPSRFSGSGSGTDFTLTISSLQPEDFATYYCQQTYMMPYTFGQGTKLEIKR
notes: scFv
B7: Polypeptide No. 117 (scFv, V domains shown)
VH: EVQLLESGGGLVQPGGSLRLSCAASGFTFGDYPMSWVRQAPGKGLEWVAGISYDGLNEHYADSVKGRFTISRDNSKNTLYLQMNSLRAEDTAVYYCARDRDSGPSGFQHWGQGTLVTVSS
VL: DIQMTQSPSSLSASVGDRVTITCRASQTIGTWLAWYQQKPGKAPKLLIYDASSLESGVPSRFSGSGSGTDFTLTISSLQPEDFATYYCQQSYSTPPTFGQGTKVEIKR
notes: scFv
B8: Polypeptide No. 115 (scFv, V domains shown)
VH: QVQLVQSGAEVKKPGASVKVSCKASGYTFTGYYMHWVRQAPGQGLEWMGIISPSGGSPTYAQKFQGRVTMTRDTSTSTVYMELSSLRSEDTAVYYCAREGNGGMDVWGQGTTVTVSS
VL: not shown
notes: scFv
B9: Polypeptide No. 119 (scFv, V domains shown)
VH: QVQLVQSGAEVKKPGASVKVSCKASGNTLTNDHIHWVRQAPGQGLEWMGWMNPNSGDTGYAQKFQGRVTMTRDTSTSTVYMELSSLRSEDTAVYYCARAGVDTAMVTYYYYGMDVWGQGTTVTVSS
VL: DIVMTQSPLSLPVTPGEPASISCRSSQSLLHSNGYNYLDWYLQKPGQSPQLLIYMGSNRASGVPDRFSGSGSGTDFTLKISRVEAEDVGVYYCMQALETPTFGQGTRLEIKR
notes: scFv
B10: Polypeptide No. 118 (scFv, V domains shown)
VH: EVQLVESGGGLVKPGGSLRLSCAASGFTISNAWMSWVRQAPGKGLEWVAHIWNDGSQKYYADSVKGRFTISRDDSKNTLYLQMNSLKTEDTAVYYCARDGALGVGPDDYWGQGTLVTVSS
VL: DIVMTQSPLSLPVTPGEPASISCRSSQSLLHSNGYNYLDWYLQKPGQSPQLLIYAASSLQSGVPDRFSGSGSGTDFTLKISRVEAEDVGVYYCMQGLQTPHTFGGGTKVEIKR
notes: scFv
B11: Polypeptide No. 106 (scFv, V domains shown)
VH: QVQLVQSGAEVKKPGASVKVSCKASGYTFTGYYMHWVRQAPGQGLEWMGRIKPNSGGTDYAQKFQGRVTMTRDTSTSTVYMELSSLRSEDTAVYYCARGAYSGSYYGPIEYFQHWGQGTLVTVSS
VL: DIQMTQSPSSLSASVGDRVTITCRASQSISWFLNWYQQKPGKAPKLLIYAASSLQNGVPSRFSGSGSGTDFTLTISSLQPEDFATYYCQQYGSFPPTFGGGTKVEIKR
notes: scFv
B12: Polypeptide No. 116 (scFv, V domains shown)
VH: EVQLLESGGGLVQPGGSLRLSCAASGFTFSNYAMAWVRQAPGKGLEWVSAISGSGGGTYYADSVKGRFTISRDNSKNTLYLQMNSLRAEDTAVYYCAREGGYDPDYYYYGMDVWGQGTTVTVSS
VL: DIQMTQSPSSLSASVGDRVTITCRASQSISSYLNWYQQKPGKAPKLLIYATSRLQSGVPSRFSGSGSGTDFTLTISSLQPEDFATYYCQQGFNFPPTFGGGTKVEIKR
notes: scFv
B13: Polypeptide No. 107 (scFv, V domains shown)
VH: QVQLVQSGAEVKKPGSSVKVSCKASGYTFTDYYIHWVRQAPGQGLEWMGGIIPIFGTANYAQKFQGRVTITADESTSTAYMELSSLRSEDTAVYYCAREPLWFGESSPHDYYGMDVWGQGTLVTVSS
VL: DIQMTQSPSSLSASVGDRVTITCQASQDISNYLNWYQQKPGKAPKLLIYAASTLQSGVPSRFSGSGSGTDFTLTISSLQPEDFATYYCQQSYSSPPTFGQGTKVEIKR
notes: scFv

What was measured:
[1] = target: T1, huCD33-G69-Fc recombinant protein (human, UniProt P20138 18-259); assay: BLI;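 also: biolayer interferometry: scFvs captured from periplasmic extracts on anti-V5-loaded streptavidin biosensors, antigen association for 2 min, buffer dissociation for 5 min, 1:1 Langmuir fit giving off-rate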
T1 construct: extracellular domain; also called CD33 R69G
T1 sequence (P20138 18-259 R69G): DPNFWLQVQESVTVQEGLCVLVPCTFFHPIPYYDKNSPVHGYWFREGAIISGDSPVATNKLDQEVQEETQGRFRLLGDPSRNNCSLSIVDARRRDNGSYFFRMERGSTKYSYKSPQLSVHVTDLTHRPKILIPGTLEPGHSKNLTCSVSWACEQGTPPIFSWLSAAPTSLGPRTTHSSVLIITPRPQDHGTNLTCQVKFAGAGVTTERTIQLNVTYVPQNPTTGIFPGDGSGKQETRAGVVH
Protocol: Discovered scFvs were analyzed for binding to huCD33-R69-His or huCD33-G69-Fc recombinant proteins (for anti-CD33 scFvs; for CLL-1 scFvs, huCLL1-K244-Avi-Tev-His or huCLL1-Q244-Avi-Tev-His were used; for FLT3, huFLT3-T227-His or huFLT3-M227-Fc were used) using BLI on a ForteBio Octet HTX instrument. Streptavidin-coated biosensors were loaded with biotinylated anti-V5 tag monoclonal antibody for 5 min and were then quenched and blocked with 20 μM amine-PEG2-Biotin for 5 min. scFvs were captured on biosensors from scFv clone periplasmic extracts. huCD33 (or huCLL-1, or huFLT3) proteins were then associated with the captured scFvs for 2 minutes, followed by dissociation with buffer (1×HBST [10 mM HEPES pH 7.4, 150 mM NaCl, 0.05% Tween-20], 1 g/L BSA) for 5 minutes. […] Data was fitted with 1:1 Langmuir equation and off-rate values were reported.

[2] = target: T2, huCD33-R69 stably expressed on Jurkat cells (human, UniProt P20138 18-364); assay: FACS on cells;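 also: fixed Jurkat lines probed with myc-tagged scFv periplasmic extracts, anti-myc PE flow cytometry, PE MFI fold binned − <2, + 2–10, ++ 10–30, +++ >30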
T2 construct: whole, on cells; >200,000 receptors per cell; also called CD33 WT; CD33^ARG69
T2 sequence (P20138 18-364): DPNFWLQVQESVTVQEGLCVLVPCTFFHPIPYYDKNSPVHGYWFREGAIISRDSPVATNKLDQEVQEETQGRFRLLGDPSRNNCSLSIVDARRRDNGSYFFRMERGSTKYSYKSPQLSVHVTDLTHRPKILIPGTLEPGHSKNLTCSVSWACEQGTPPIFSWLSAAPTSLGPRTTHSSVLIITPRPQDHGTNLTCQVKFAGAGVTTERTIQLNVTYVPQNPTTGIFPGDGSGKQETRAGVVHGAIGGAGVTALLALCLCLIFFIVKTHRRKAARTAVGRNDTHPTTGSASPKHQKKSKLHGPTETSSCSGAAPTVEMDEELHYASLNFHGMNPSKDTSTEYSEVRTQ
Protocol: (§1) Jurkat cells were engineered to stably express either the huCD33-R69 or huCD33-G69 variant at >200,000 receptors per cell. Parental, huCD33-R69, and huCD33-G69 Jurkat cell lines were stained with differing levels of CellTrace Violet Cell Proliferation Kit (ThermoFisher, cat. #C34557) to barcode each cell line. Barcoded Jurkat cell lines were fixed with paraformaldehyde and incubated with myc-labeled scFv periplasmic extracts and a secondary anti-myc PE-conjugated monoclonal antibody. Appropriate positive and negative controls were used. Stained cells were analyzed by flow cytometry (CytoFLEX, Beckman Coulter, Inc.) and binding was assessed by change in PE mean fluorescence intensity (MFI) of the barcoded cell populations.
(§2) Data is disclosed below in Table 16c, reporting FACS fold change over parental as (−), indicating <2 fold; (+), indicating 2-10 fold; (++), indicating 10-30 fold; and (+++), indicating >30 fold.

[3] = target: T3, huCD33-G69 stably expressed on Jurkat cells (human, UniProt P20138 18-364); assay: FACS on cells;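 also: fixed Jurkat lines probed with myc-tagged scFv periplasmic extracts, anti-myc PE flow cytometry, PE MFI fold binned − <2, + 2–10, ++ 10–30, +++ >30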
T3 construct: whole, on cells; >200,000 receptors per cell; also called CD33 Mutant; CD33 R69G
T3 sequence (P20138 18-364 R69G): as the sequence (P20138 18-364) above, with R52G counted along it
Protocol: as §1, §2

| Binder | binding result [1] | FACS geometric mean fold change over Jurkat parental [2] [fold] | FACS geometric mean fold change over Jurkat parental [3] [fold] |
| --- | --- | --- | --- |
| B1 | binds | 10 to 30 | 10 to 30 |
| B2 | binds | > 30 | 10 to 30 |
| B3 | binds | > 30 | > 30 |
| B4 | binds | > 30 | 10 to 30 |
| B5 | binds | 2 to 10 | 2 to 10 |
| B6 | binds | > 30 | 10 to 30 |
| B7 | binds | 2 to 10 | 2 to 10 |
| B8 | binds | 10 to 30 | 10 to 30 |
| B9 | binds | 10 to 30 | > 30 |
| B10 | binds | 10 to 30 | 2 to 10 |
| B11 | binds | 2 to 10 | 2 to 10 |
| B12 | binds | > 30 | > 30 |
| B13 | binds | 10 to 30 | 10 to 30 |
